Experimental data as given in patent US20230192890A1.

B1: H7 (antibody, IgG1, V domains shown)
VH: AVTLDESGGGLQTPGGALSLVCKASGFTFSTYAMGWMRQAPGKGLEYVAAIRNDGSWTGYGAAVKGRATILRDNGQSTVRLQLSNLRAEDTGTYYCAKYTGSSGGSIGAWGHGTEVIVS
VL: ASTQPSSVSANPGGTVEITCSGGSGRYYYGWYQQKSPGSAPVTVIYSSTHRPSNIPSRFSGSKSGSTATLTITGVQAEDEAVYFCGTADSSSYVFGAGTTLTVL
B2: G6 (antibody, IgG1, V domains shown)
VH: AVTLDESGGGLQTPGGALSLVCKASGFTFSSYGMEWVRQAPGKGLEYVAAIRNDGSWTGYGAAVKGRATISRDDGQSTLRLQLNNLRAEDTATYYCAKTTGSSGGSIDAWGHGTEVIVS
VL: ASTQPSSVSANLGETVKITCSGGGNYYYGWYQQKSPGSAPVTLIYANDKRPSNIPSRFSGSKSGSTGTLTITGVQAEDEAVYFCGTADTGKYVFGAGTTLTVL

Columns and labels:
[1] = biological target: T1, Ala mutant SEQ ID NO: 27 (human); test: ELISA, peptide on plate (10 ug/mL)
T1 sequence (peptide): AENMDDQWMQDEMEIGY

[2] = biological target: T2, Ala mutant SEQ ID NO: 28 (human); test: ELISA, peptide on plate (10 ug/mL)
T2 sequence (peptide): EANMDDQWMQDEMEIGY

[3] = biological target: T3, Ala mutant SEQ ID NO: 29 (human); test: ELISA, peptide on plate (10 ug/mL)
T3 sequence (peptide): EEAMDDQWMQDEMEIGY

[4] = biological target: T4, Ala mutant SEQ ID NO: 30 (human); test: ELISA, peptide on plate (10 ug/mL)
T4 sequence (peptide): EENADDQWMQDEMEIGY

[5] = biological target: T5, Ala mutant SEQ ID NO: 31 (human); test: ELISA, peptide on plate (10 ug/mL)
T5 sequence (peptide): EENMADQWMQDEMEIGY

[6] = biological target: T6, Ala mutant SEQ ID NO: 33 (human); test: ELISA, peptide on plate (10 ug/mL)
T6 sequence (peptide): EENMDDAWMQDEMEIGY

[7] = biological target: T7, Ala mutant SEQ ID NO: 36 (human); test: ELISA, peptide on plate (10 ug/mL)
T7 sequence (peptide): EENMDDQWMADEMEIGY

[8] = biological target: T8, Ala mutant SEQ ID NO: 37 (human); test: ELISA, peptide on plate (10 ug/mL)
T8 sequence (peptide): EENMDDQWMQAEMEIGY

[9] = biological target: T9, Ala mutant SEQ ID NO: 38 (human); test: ELISA, peptide on plate (10 ug/mL)
T9 sequence (peptide): EENMDDQWMQDAMEIGY

[10] = biological target: T10, Ala mutant SEQ ID NO: 39 (human); test: ELISA, peptide on plate (10 ug/mL)
T10 sequence (peptide): EENMDDQWMQDEAEIGY

[11] = biological target: T11, Ala mutant SEQ ID NO: 40 (human); test: ELISA, peptide on plate (10 ug/mL)
T11 sequence (peptide): EENMDDQWMQDEMAIGY

[12] = biological target: T12, Ala mutant SEQ ID NO: 41 (human); test: ELISA, peptide on plate (10 ug/mL)
T12 sequence (peptide): EENMDDQWMQDEMEAGY

[13] = biological target: T13, Ala mutant SEQ ID NO: 42 (human); test: ELISA, peptide on plate (10 ug/mL)
T13 sequence (peptide): EENMDDQWMQDEMEIAY

[14] = biological target: T14, Ala mutant SEQ ID NO: 43 (human); test: ELISA, peptide on plate (10 ug/mL)
T14 sequence (peptide): EENMDDQWMQDEMEIGA

[15] = biological target: T15, Ala mutant having 3-amino acid substitution, SEQ ID NO: 44 (human); test: ELISA, peptide on plate (10 ug/mL)
T15 sequence (peptide): AAAMDDQWMQDEMEIGY

[16] = biological target: T16, Ala mutant having 3-amino acid substitution, SEQ ID NO: 47 (human); test: ELISA, peptide on plate (10 ug/mL)
T16 sequence (peptide): EENMDDQWMAAAMEIGY

[17] = biological target: T17, Ala mutant having 3-amino acid substitution, SEQ ID NO: 48 (human); test: ELISA, peptide on plate (10 ug/mL)
T17 sequence (peptide): EENMDDQWMQDEAAAGY

[18] = biological target: T18, Ala mutant having 3-amino acid substitution, SEQ ID NO: 49 (human); test: ELISA, peptide on plate (10 ug/mL)
T18 sequence (peptide): EENMDDQWMQDEMEIAA

[19] = biological target: T19, TA0096 (peptide antigen corresponding to positions 340 to 356 of PAD4) (human); test: ELISA, peptide on plate (10 ug/mL)
T19 sequence (peptide): EENMDDQWMQDEMEIGY

[20] = biological target: full-length recombinant mouse PAD4 (mouse) (UniProt Q9Z183); test: ELISA, mouse PAD4 on plate, antibody 1 ug/mL
full-length recombinant mouse PAD4 (mouse), sequence (Q9Z183 whole entry): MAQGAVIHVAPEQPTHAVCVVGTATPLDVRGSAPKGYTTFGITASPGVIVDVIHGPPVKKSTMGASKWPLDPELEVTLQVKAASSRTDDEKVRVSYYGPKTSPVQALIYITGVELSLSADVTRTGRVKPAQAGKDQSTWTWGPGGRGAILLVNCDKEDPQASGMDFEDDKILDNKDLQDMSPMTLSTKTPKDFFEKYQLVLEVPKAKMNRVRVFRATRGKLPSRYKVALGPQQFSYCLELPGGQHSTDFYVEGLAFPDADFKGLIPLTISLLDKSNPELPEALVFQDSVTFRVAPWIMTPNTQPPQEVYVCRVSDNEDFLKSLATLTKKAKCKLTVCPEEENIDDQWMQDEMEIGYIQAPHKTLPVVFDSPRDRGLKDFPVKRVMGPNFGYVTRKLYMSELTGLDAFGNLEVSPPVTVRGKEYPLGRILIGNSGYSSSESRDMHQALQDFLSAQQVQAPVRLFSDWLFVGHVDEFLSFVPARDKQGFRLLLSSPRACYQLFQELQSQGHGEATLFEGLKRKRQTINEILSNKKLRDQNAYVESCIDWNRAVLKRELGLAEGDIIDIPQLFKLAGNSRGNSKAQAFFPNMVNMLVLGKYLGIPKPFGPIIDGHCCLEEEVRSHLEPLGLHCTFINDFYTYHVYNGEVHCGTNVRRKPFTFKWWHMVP

[21] = biological target: full-length recombinant mouse PAD4 (mouse) (UniProt Q9Z183); test: ELISA, mouse PAD4 on plate, antibody 0.25 ug/mL
[22] = biological target: full-length recombinant mouse PAD4 (mouse) (UniProt Q9Z183); test: ELISA, mouse PAD4 on plate, antibody 0.0625 ug/mL
[23] = biological target: full-length recombinant mouse PAD4 (mouse) (UniProt Q9Z183); test: ELISA, mouse PAD4 on plate, antibody 0.015625 ug/mL
[24] = biological target: full-length recombinant mouse PAD4 (mouse) (UniProt Q9Z183); test: ELISA, mouse PAD4 on plate, antibody 0.0002441 ug/mL
[25] = biological target: full-length recombinant mouse PAD4 (mouse) (UniProt Q9Z183); test: ELISA, mouse PAD4 on plate, antibody 0.0009766 ug/mL
[26] = biological target: full-length recombinant mouse PAD4 (mouse) (UniProt Q9Z183); test: ELISA, mouse PAD4 on plate, antibody 0.0039063 ug/mL
[27] = biological target: full-length recombinant mouse PAD4 (mouse) (UniProt Q9Z183); test: ELISA, mouse PAD4 on plate, antibody 6.104E-05 ug/mL

| Binder | absorbance 490 nm/630 nm [1] | absorbance 490 nm/630 nm [2] | absorbance 490 nm/630 nm [3] | absorbance 490 nm/630 nm [4] | absorbance 490 nm/630 nm [5] | absorbance 490 nm/630 nm [6] | absorbance 490 nm/630 nm [7] | absorbance 490 nm/630 nm [8] | absorbance 490 nm/630 nm [9] | absorbance 490 nm/630 nm [10] | absorbance 490 nm/630 nm [11] | absorbance 490 nm/630 nm [12] | absorbance 490 nm/630 nm [13] | absorbance 490 nm/630 nm [14] | absorbance 490 nm/630 nm [15] | absorbance 490 nm/630 nm [16] | absorbance 490 nm/630 nm [17] | absorbance 490 nm/630 nm [18] | absorbance 490 nm/630 nm [19] | absorbance 490 nm/630 nm [20] | further results |
| --- | --- | --- | --- | --- | --- | --- | --- | --- | --- | --- | --- | --- | --- | --- | --- | --- | --- | --- | --- | --- | --- |
| B1 | 1.9 OD | 1.95 OD | 1.9 OD | 1.95 OD | 0.462 OD | 1.87 OD | 1.87 OD | 1.86 OD | 1.99 OD | 1.81 OD | 1.86 OD | 1.83 OD | 1.85 OD | 1.87 OD | 1.9 OD | 1.67 OD | 1.87 OD | 1.86 OD | 1.82 OD | 2.3 OD | absorbance 490 nm/630 nm [21]: 2.31 OD; absorbance 490 nm/630 nm [22]: 2.29 OD; absorbance 490 nm/630 nm [23]: 2.26 OD; absorbance 490 nm/630 nm [24]: 0.224 OD; absorbance 490 nm/630 nm [25]: 0.55 OD; absorbance 490 nm/630 nm [26]: 1.41 OD; absorbance 490 nm/630 nm [27]: 0.103 OD |
| B2 | 1.91 OD | 1.99 OD | 1.95 OD | 1.92 OD | 1.77 OD | 1.98 OD | 1.85 OD | 1.85 OD | 1.92 OD | 1.83 OD | 1.86 OD | 1.87 OD | 1.87 OD | 1.87 OD | 1.92 OD | 1.73 OD | 1.85 OD | 1.88 OD | 1.87 OD | 2.27 OD | absorbance 490 nm/630 nm [21]: 2.27 OD; absorbance 490 nm/630 nm [22]: 2.16 OD; absorbance 490 nm/630 nm [23]: 1.35 OD; absorbance 490 nm/630 nm [24]: 0.071 OD; absorbance 490 nm/630 nm [25]: 0.2 OD; absorbance 490 nm/630 nm [26]: 0.55 OD; absorbance 490 nm/630 nm [27]: 0.044 OD |
